Patent publication US20150037340A1 (PEIRRE FABRE MEDICAMENT, published 2015)
Blank lines part the entries; values can stand above or below the molecule they belong to.

Experiments:
[1] = target: human protein Axl (cellular form on the cell surface) (human) (UniProt P30530); assay: Qifikit quantitative flow cytometry on Calu-1 cells
[2] = target: human protein Axl (cellular form on the cell surface) (human) (UniProt P30530); assay: Qifikit quantitative flow cytometry on SN12C cells
[3] = target: human protein Axl (cellular form on the cell surface) (human) (UniProt P30530); assay: Qifikit quantitative flow cytometry on Panc1 cells
[4] = target: human protein Axl (cellular form on the cell surface) (human) (UniProt P30530); assay: Qifikit quantitative flow cytometry on A172 cells
[5] = target: human protein Axl (cellular form on the cell surface) (human) (UniProt P30530); assay: flow cytometry, MAB154 labelling of untreated (No Ab) SN12C cells
[6] = target: human protein Axl (cellular form on the cell surface) (human) (UniProt P30530); assay: Qifikit quantitative flow cytometry on NCI-H125 cells
[7] = target: human protein Axl (cellular form on the cell surface) (human) (UniProt P30530); assay: Qifikit quantitative flow cytometry on PC3 cells
[8] = target: human protein Axl (cellular form on the cell surface) (human) (UniProt P30530); assay: Qifikit quantitative flow cytometry on MDA-MB-435S cells
[9] = target: human protein Axl (cellular form on the cell surface) (human) (UniProt P30530); assay: Qifikit quantitative flow cytometry on NCI-H226 cells
[10] = target: human protein Axl (cellular form on the cell surface) (human) (UniProt P30530); assay: Qifikit quantitative flow cytometry on A431 cells
[11] = target: human protein Axl (cellular form on the cell surface) (human) (UniProt P30530); assay: Qifikit quantitative flow cytometry on DU-145 cells
[12] = target: human protein Axl (cellular form on the cell surface) (human) (UniProt P30530); assay: Qifikit quantitative flow cytometry on MDA-MB-231 cells
[13] = target: human protein Axl (cellular form on the cell surface) (human) (UniProt P30530); assay: Qifikit quantitative flow cytometry on MCF7 cells
[14] = target: human protein Axl (cellular form on the cell surface) (human) (UniProt P30530); assay: flow cytometry, 9G4 labelling of SN12C cells treated 24 h with 9G4
[15] = target: human protein Axl (cellular form on the cell surface) (human) (UniProt P30530); assay: cell-based or functional assay
[16] = target: human protein Axl (cellular form on the cell surface) (human) (UniProt P30530); assay: flow cytometry, 9G4 labelling of untreated (No Ab) SN12C cells
[17] = target: T1, human protein Axl (cellular form on the cell surface) (human, UniProt P30530 26-894); assay: flow cytometry on SN12C cells, anti-human IgG Alexa488; table under the graph, unit from the axis Log [M]
T1 construct: also called Axl receptor; membrane Axl receptor
T1 sequence: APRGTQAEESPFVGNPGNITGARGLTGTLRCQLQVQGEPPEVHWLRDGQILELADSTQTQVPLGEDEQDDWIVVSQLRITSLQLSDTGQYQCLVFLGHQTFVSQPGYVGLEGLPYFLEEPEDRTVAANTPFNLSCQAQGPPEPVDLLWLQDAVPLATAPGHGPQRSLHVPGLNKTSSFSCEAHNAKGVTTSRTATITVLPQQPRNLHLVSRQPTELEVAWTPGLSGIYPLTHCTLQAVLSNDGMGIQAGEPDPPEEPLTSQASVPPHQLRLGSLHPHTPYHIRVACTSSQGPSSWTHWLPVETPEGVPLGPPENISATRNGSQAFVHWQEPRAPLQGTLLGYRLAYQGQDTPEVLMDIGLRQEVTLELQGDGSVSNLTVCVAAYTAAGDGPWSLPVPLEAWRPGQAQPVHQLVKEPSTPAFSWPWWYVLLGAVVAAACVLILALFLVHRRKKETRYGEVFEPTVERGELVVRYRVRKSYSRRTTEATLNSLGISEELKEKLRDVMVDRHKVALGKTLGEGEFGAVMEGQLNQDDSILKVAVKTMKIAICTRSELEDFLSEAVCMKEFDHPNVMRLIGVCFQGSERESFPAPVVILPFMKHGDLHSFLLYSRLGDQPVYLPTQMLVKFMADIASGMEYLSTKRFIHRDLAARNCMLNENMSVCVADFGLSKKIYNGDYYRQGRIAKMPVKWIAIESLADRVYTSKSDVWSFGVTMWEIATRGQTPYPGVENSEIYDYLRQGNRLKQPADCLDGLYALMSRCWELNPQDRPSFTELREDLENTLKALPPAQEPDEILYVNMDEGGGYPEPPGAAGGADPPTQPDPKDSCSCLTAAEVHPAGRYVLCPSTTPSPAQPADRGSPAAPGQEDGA
Experimental: Cells were detached using trypsin and cell concentration was adjusted at 1×10⁶ cells/ml in FACS buffer. A volume of 100 μL of cell suspension was incubated with increasing concentrations of either isotype controls or anti-Axl antibodies for 20 min. at 4° C. Cells were then washed three times with FACS buffer and incubated for 20 min. more using either anti-mouse IgG Alexa488 secondary antibody or anti-human IgG Alexa488 secondary antibody at 4° C. in the dark. Cells were washed three times with FACS buffer and resuspended with 100 μl of FACS buffer before adding propidium iodide.

- ABC (Qifikit) [1]: > 100000 ABC
- ABC (Qifikit) [2]: > 100000 ABC
- antigen binding capacity (ABC) [2]: > 100000 ABC
- ABC (Qifikit) [3]: 36800 ABC
- ABC (Qifikit) [4]: 52400 ABC
- MFI at T24 h [5]: 950 MFI
- ABC (Qifikit) [6]: 5540 ABC
- ABC (Qifikit) [7]: 8420 ABC
- ABC (Qifikit) [8]: 17800 ABC
- ABC (Qifikit) [9]: 32100 ABC
- ABC (Qifikit) [10]: 3950 ABC
- ABC (Qifikit) [11]: 55300 ABC
- ABC (Qifikit) [12]: 61200 ABC
- ABC (Qifikit) [13]: 71 ABC
Molecule: MAB154 commercial anti-Axl antibody (R and D Systems, ref MAB154)

- MFI at T24 h [14]: 13 MFI
- % remaining Axl, SN12C cells [15]: 117%
- Δ (MFI No Ab 24 h - MFI Ab 24 h), SN12C cells [15]: -2 MFI
- MFI at T24 h [16]: 11 MFI
Molecule: 9G4 murine IgG1 isotype control antibody

- EC50 [17]: 1.81 nM
B1: c1613F12 (chimeric 1613F12) (antibody, V domains shown)
VH: EVHLQQSGAELVKPGASVKLSCTASGFNIRDTYIHWVKQRPEQGLEWIGRLDPANGHTKYGPNFQGRATMTSDTSSNTAYLQLSSLTSEDTAVYYCARGAYYYGSSGLFYFDYWGQGTTLSVSS
VL: DVQITQSPSYLATSPGETITINCRASKSISKYLAWYQEKPGKTNKLLIYSGSTLQSGVPSRFSGSGSGTDFTLTISSLEPEDFAMYFCQQHHEYPLTFGAGTELELK
notes: Murine variable domains with human constant regions; also called chimeric form of the 1613F12
